Consider one molecule from paper PMC5364394.

The target of this series is FLAG-SF2/ASF purified (human, UniProt Q07955 1-248). Description: EMSA. The conditions noted are these: protein: recombinant; tags: FLAG; label: IRDye-800.
Sequence of FLAG-SF2/ASF purified (Q07955 whole entry): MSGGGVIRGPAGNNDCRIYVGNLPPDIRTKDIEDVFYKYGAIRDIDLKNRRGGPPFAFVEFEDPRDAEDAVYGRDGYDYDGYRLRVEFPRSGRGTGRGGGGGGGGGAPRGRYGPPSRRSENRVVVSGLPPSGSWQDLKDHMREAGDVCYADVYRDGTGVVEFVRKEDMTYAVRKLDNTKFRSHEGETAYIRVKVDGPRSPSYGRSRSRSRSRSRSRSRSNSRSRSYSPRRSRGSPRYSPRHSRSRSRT

Regarding GACAUACUGACAAGGAUGUC (ssRNA) [H7N9-NS-529-548 (NEP-ESE, 540A, WT)], the binding result is on record as “binds”.
